Where a chain is given by its changes, count along the chain named.

The experiment concerns the target T1, human GPRC5D protein (UniProt Q9NZD1 1-345).
T1 chain: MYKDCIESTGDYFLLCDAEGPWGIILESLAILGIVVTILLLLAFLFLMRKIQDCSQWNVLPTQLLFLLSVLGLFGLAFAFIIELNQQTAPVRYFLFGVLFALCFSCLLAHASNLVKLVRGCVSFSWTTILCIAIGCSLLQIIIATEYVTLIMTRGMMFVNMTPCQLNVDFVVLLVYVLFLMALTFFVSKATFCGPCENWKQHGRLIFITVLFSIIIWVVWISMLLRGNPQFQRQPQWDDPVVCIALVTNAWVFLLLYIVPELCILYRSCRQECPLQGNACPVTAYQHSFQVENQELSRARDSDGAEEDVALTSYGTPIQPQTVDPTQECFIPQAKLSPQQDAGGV
Briefly: FACS, cells with high expression of hGPRC5D. A general note: Flow cytometry measures light scatter and fluorescence of single cells or particles in a stream.

B1: Chi-131 (antibody, V domains shown)
VH: EVQLQQSGPELVKPGASVKMSCKASGYTFTNYVMHWVKQKPGQGLEWIGYFNPYNDGTNYNEKFKGKATLTSDKSSNTAYMELSSLTSEDSAVYYCARGGVRRYFDVWGAGTTVTVSS
VL: DIQMTQSPSSLSASLGERVSLTCRASQDIGSNLNWLQLGPDGTIKRLIYATFSLDSGVPKRFSGSRSGSDYSLTISSLESEDFVDYYCQQYANFPPTFGGGTKLEIKR
By EC50 is commonly meant the concentration needed to bring the measured effect to its halfway point. For B1, a half-maximal response (EC50) required 660 pM.

B2: Chi-105 (antibody, V domains shown)
VH: EVQLQQSGPELVKPGASVKMSCKASGYTFTDYYMNWVKQSHGKSLEWIGYIYPNNGGTGYNQRFKGKATLTADKSSSTAYMELRSLTSEDSAVYYCARWGGTRLGYYAMDYWGQGTSVTVSS
VL: DIVMTQSQKFMSTSVGDRVSVTCKASQNVGTNVVWYQQKPGQSPKLLIYWASTRHTGVPDRFTGSGSGTDFTLTISNVQSEDLADYFCQQYSRYPYTFGGGTKLEIKR
Take B2: the EC50 is 1440 pM.

B3: Chi-89 (antibody, V domains shown)
VH: EVQLVESGGDLVKPGGSLKLSCAASGFTFSSYGMSWVRQTPDKRLEWVATISSGGSYTYYPDSVKGRFTFSRDNAKNTLYLQMSSLKSEDTAMYYCVRQALRYHMDSWGQGTSVTVSS
VL: B2 VL with V34A, L46A, W50S, T53Y, H55Y, T56S, Y86F, S92Y, R93S, Y96W
B3 registered an EC50 of 700 pM.

B4: Chi-169 (antibody, V domains shown)
VH: EVKLVESGGGLVKPGASLKLSCAASGFTFSNYGMSWVRQTSDKRLEWVASISSGGGRIYYPDNVKGRFTISRENAKNTLYLQMSSLKSEDTALYYCTRHAMDNWGQGTSVIVSS
VL: QIVLTQSPAIMSASPGEKVTMTCSASSSVSNMYWYQQKSGTSPKRWIYDTSKLASGVPARFSGSGSGTSYSLTISSMEAEDASTYYCQQWSSNPLTFGAGTTLELKR
Regarding B4, the EC50 was 660 pM. This EC50 and that of the molecule before are within 1.5-fold of each other.

B5: Chi-128 (antibody, V domains shown)
VH: DVQLVESGGGLVQPGGSRKVSCAASGFTFSSFGMHWVRQAPEKGLEWVAYISRGSSTIYYADTVKGRFTISRDNPKNTLFLQMTSLRSEDTAMYYCARSGYGSSSYYFDYWGQGTTLTVSS
VL: ENVLTQSPAIMSASPREKVTMTCRASSSIRSSYLHWYQQKSGASPKLWIYSTSNLASGVPARFSGSGSGTSYSLTISSVEAEDAATYYCQQFSGYPLTFGGGTKLEIKR
Consider B5, for which the EC50 stood at 760 pM.
